Test results reported in paper PMC9712689.

Key:
[1] = molecular target: cross-linked RlpA-Δ32·MltF2 complex (SPR chip) (P. aeruginosa PAO1) (UniProt Q9X6V6); test: SPR
[2] = molecular target: RlpA-Δ32 (P. aeruginosa PAO1) (UniProt Q9X6V6); test: SPR
[3] = molecular target: RlpA-Δ32, fluorescently labeled (P. aeruginosa PAO1) (UniProt Q9X6V6); test: MST
[4] = molecular target: RlpA-Δ32·MltF2 complex (MST) (P. aeruginosa PAO1) (UniProt Q9X6V6); test: MST
[5] = molecular target: RlpA-SPOR (P. aeruginosa PAO1) (UniProt Q9X6V6); test: ITC
[6] = molecular target: RlpA-SPOR (P. aeruginosa PAO1) (UniProt Q9X6V6); test: SPR

Row | Substance | Kd [1] | koff [1] | kon [1] | Kd [2] | koff [2] | kon [2] | Kd [3] | Kd [4] | Kd [5] | stoichiometry N [5] | Kd [6] | koff [6] | kon [6]
1 | PBP1a (from UniProt Q07806 27-822) (enzyme) | 280 nM | 0.0048 s⁻¹ | 51700 M⁻¹ s⁻¹ | – | – | – | – | – | – | – | – | – | –
2 | PBP1b (enzyme) | – | – | – | 55 nM | 0.0005 s⁻¹ | 9100 M⁻¹ s⁻¹ | 16 nM | 57 nM | – | – | – | – | –
3 | SltB3 (enzyme) | – | – | – | 140 nM | 0.00079 s⁻¹ | 5500 M⁻¹ s⁻¹ | 92 nM | 390 nM | 79 nM | 1 | 2140 nM | 0.00079 s⁻¹ | 370 M⁻¹ s⁻¹
